For series [1], the target named is Stat1tc, phosphorylated Tyr701 (Homo sapiens) (UniProt P42224). Put plainly: EMSA. For orientation: Mobility shift assays separate free from complexed probe on a gel.
The target in series [2] is T1, Stat1alpha, phosphorylated Tyr701 (Homo sapiens, UniProt P42224 P42224:1-750). Put plainly: EMSA; stabilization indistinguishable from 10 bp spacing. As to conditions: tags: baculovirus/Sf9; NEM-alkylated; phosphorylated in vitro by EGF-receptor kinase; chain copies: 2; label: 32P; protruding 5'-TCC; two tandem sites. On the procedure:
(§1) Under the reaction conditions described above, each oligonucleotide (at 2×10^-9 M or otherwise stated) was mixed with 0.55×10^-9 M dimer of purified phosphorylated Stat1 protein. The reaction volume was scaled up to 100 μl. The reaction was incubated for 5–15 min at room temperature and for time zero, an aliquot (10 μl) was removed and loaded directly onto a pre-run polyacrylamide gel (see above). Afterwards, a 100×molar excess of homologous unlabelled DNA (in less than 1% of the reaction volume) was added. At subsequent time points (indicated in FIGS. 5C–5D, and 7) 10 μl aliquots were withdrawn and also loaded onto the running gel (at 10 V/cm). After entering the final time point (after 30–45 min), electrophoresis was continued at 20 V/cm until the unbound labelled DNA-fraction reached the bottom of the gel. Gels were dried, exposed to X-ray film and labelled protein/DNA complexes and unbound labelled DNA were quantitated as described above. The half life was determined from a semi-log plot of the numerical data (shifted radioactivity over shifted radioactivity at time zero versus time). For many sequences studied, the half life was too short ([…]) to be determined by EMSA. All experiments were performed at least twice with the different oligonucleotides.
Figure 7B: FIG. 7B. […]

Series [3] addresses T1, Stat1alpha, phosphorylated Tyr701. In words: EMSA; 2x(dimer) complex stable, >30 min for partial displacement by 100x competitor. As to conditions: tags: baculovirus/Sf9; NEM-alkylated; phosphorylated in vitro by EGF-receptor kinase; chain copies: 2; label: 32P; protruding 5'-TCC; two tandem sites. How it is done:
as §1, with “oligonucleotides. […]” for “oligonucleotides.”

Series [4] has as its target Stat1beta, phosphorylated Tyr701 (Homo sapiens, UniProt P42224-2 P42224-2:1-712). In words: EMSA; 2x(dimer) complex stabilized as with Stat1alpha. As to conditions: tags: baculovirus/Sf9; NEM-alkylated; phosphorylated in vitro by EGF-receptor kinase; chain copies: 2; label: 32P; protruding 5'-TCC; two tandem sites.
For series [5], the target named is T1, Stat1alpha, phosphorylated Tyr701. Put plainly: EMSA; apparent Keq, dimer; 40 mM KCl, 10 mM MgCl2, 10 mM CaCl2, RT; complex half-life <0.5 min. As to conditions: tags: baculovirus/Sf9; NEM-alkylated; phosphorylated in vitro by EGF-receptor kinase; chain copies: 2; label: 32P; protruding 5'-TCC.
Series [6] has the same target. Put plainly: EMSA; binding unaffected by NEM alkylation; no difference from Stat1tc in off-rate. As to conditions: tags: baculovirus/Sf9; NEM-alkylated; phosphorylated in vitro by EGF-receptor kinase; chain copies: 2; label: 32P; protruding 5'-TCC. From the text: Figure 3A: FIG. 3A. DNA binding of purified phosphorylated Stat1α (lane 1) and Stat1tc (lane 2) using as a probe the radioactively labelled cfosWT sequence. Binding reactions contained equimolar amounts of the respective proteins. The position of migration of the free DNA probe (free) and the protein/DNA complex (bound) is indicated. Note the presence of a slower migrating band only with the full length Stat1α, lane 1 (see also FIG. 3B). Figure 3B: FIG. 3B. Influence of cysteine alkylation on the DNA binding activity of Stat1α. A mixture of phosphorylated and unphosphorylated protein (0.23 µM final; ~15% phosphoprotein) was reacted in the presence of 0.8 mM DTT and the indicated concentrations of N-ethyl-maleimide (NEM) for 20 min at room temperature in a volume of 12.5 µl. The reaction was stopped with DTT (final concentration of 10 mM) followed by the addition of 1.5 pmoles of labelled probe (cfosM67). Samples were resolved on a 4.5% native polyacrylamide gel. (M) denotes the position of bromophenol blue (lower) and xylene cyanol (upper) markers.
Electrophoretic mobility shift assays (EMSA) (Fried and Crothers, 1981; Garner and Revzin, 1981) were used to test DNA binding of tyrosine phosphorylated Stat1α and Stat1tc. […] In addition, the DNA binding ability of homodimeric phosphorylated Stat1α or its truncated form was highly resistant to up to 2 Molar monovalent salt concentrations.

T1 sequence (P42224 whole entry, one chain of several): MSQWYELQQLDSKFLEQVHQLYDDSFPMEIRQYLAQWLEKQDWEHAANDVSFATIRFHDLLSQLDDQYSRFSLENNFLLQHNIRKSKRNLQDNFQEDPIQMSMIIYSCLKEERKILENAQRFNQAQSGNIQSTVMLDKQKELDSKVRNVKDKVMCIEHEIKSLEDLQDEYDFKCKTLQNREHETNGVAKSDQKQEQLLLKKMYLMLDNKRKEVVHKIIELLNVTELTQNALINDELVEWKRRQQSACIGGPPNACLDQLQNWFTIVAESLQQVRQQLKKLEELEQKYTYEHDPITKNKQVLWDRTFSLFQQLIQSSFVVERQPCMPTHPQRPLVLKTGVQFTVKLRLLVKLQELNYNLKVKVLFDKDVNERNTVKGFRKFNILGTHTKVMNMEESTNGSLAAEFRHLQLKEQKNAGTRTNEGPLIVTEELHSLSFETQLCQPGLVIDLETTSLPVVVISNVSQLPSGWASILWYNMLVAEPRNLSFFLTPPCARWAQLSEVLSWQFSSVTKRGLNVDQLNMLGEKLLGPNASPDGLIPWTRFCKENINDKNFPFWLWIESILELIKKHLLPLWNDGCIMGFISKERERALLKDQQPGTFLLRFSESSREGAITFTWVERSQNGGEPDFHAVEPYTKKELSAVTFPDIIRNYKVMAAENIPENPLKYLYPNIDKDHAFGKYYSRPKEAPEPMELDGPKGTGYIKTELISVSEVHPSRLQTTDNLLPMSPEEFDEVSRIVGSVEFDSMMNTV
Stat1tc, phosphorylated Tyr701 (Homo sapiens), sequence (P42224 whole entry): as the sequence (P42224 whole entry, one chain of several) above
Stat1beta, phosphorylated Tyr701, sequence (P42224 1-712, one chain of several): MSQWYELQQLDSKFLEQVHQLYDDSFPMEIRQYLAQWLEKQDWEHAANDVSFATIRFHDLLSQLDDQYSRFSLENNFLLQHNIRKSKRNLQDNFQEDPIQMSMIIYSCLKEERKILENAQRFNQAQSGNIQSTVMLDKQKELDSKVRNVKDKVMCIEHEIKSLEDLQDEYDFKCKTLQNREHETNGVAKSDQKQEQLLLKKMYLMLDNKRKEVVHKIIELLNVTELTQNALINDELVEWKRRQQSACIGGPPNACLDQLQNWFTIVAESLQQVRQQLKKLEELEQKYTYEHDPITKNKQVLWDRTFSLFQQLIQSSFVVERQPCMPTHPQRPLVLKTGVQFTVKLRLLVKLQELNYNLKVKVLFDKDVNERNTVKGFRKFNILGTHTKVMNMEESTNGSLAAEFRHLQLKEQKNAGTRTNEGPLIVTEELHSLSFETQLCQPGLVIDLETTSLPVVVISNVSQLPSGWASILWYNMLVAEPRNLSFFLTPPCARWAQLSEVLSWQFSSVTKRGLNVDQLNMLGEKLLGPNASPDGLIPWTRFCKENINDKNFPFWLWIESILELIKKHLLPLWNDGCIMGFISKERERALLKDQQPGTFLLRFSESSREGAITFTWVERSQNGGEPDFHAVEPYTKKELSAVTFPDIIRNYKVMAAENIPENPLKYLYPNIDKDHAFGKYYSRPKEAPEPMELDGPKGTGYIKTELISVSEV

As to “GTATTCCCGTCAATGCA (double strand) [cfosWT]”, the Kd in series [1] (apparent Keq, dimer, 40 mM KCl, 10 mM MgCl2, 10 mM CaCl2, RT) was found to be 1 nM.

The molecule “GTATTCCTGTAAGATCT (double strand) [Ly6E]” came in with a Kd in series [1] (dimer concentration at half saturation, weak site) of 1 nM.

GTTGTTCCGGGAAAAGG (double strand) [S1] had a Kd in series [1] (dimer concentration at half saturation, strong site) of 1 nM.

In series [1] (stated as same result for several oligonucleotides, complex half-life about 3 min (FIG. 5D)), “GATTTCCCGTAAATCAT (double strand) [cfosM67]” registered a Kd of 1 nM.

B1: 2x cfosWT (15 bp spacing) (dsDNA)
DNA 1: AGTCAGTTCCCGTCAATGATCGCTACAGAGTTCCCGTCAAGCA
DNA 2: TGCTTGACGGGAACTCTGTAGCGATCATTGACGGGAACTGACT
On to B1, for which, in series [2], the binding result was “binds”.

B2: 2x cfosWT (10 bp spacing) (dsDNA)
DNA 1: AGTCAGTTCCCGTCAATGCATCAGGTTCCCGTCAATGCAT
DNA 2: ATGCATTGACGGGAACCTGATGCATTGACGGGAACTGACT
As to B2, the binding result in series [3] and in series [4] was “binds” in each case.

B3: cfosWT (dsDNA)
DNA 1: GTATTCCCGTCAATGCA
DNA 2: TGCATTGACGGGAATAC
With B3, the Kd in series [5] is roughly 1 nM.

B4: cfosM67 (dsDNA)
DNA 1: GATTTCCCGTAAATCAT
DNA 2: ATGATTTACGGGAAATC
For B4, the binding result in series [6] is on record as “binds”.
